{"source": "patent US20240109978A1", "biological_target": "CD19 on NALM-6 cells (CD19+ B lineage, acute lymphoblastic leukemia) (UniProt P15391)", "sequence (P15391 20-556 limits assumed)": "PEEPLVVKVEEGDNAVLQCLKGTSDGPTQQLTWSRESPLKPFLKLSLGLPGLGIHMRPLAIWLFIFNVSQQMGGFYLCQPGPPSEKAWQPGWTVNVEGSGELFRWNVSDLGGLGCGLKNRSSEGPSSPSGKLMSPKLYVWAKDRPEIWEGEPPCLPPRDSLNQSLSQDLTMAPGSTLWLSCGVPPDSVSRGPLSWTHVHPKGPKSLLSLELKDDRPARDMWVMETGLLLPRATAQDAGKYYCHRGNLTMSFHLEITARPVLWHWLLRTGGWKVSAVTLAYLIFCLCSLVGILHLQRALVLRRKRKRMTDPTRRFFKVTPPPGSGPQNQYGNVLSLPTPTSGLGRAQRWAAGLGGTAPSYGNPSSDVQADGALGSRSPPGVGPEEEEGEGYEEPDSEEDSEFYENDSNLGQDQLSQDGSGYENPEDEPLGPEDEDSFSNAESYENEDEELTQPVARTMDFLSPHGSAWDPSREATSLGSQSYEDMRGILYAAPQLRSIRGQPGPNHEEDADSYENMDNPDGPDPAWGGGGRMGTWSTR", "experiment": "cell-based or functional assay"}
{"substance": "IgG1-based CAR (FMC63 scFv, IgG1-CH2-CH3 spacer, CD28 transmembrane and intracellular domains, and CD3zeta-signaling domain) (receptor)", "values": [{"measurement": "killing efficacy against NALM-6 cells, 18 h co-culture, 2:1 (E:T) ratio (luciferase)", "value": 100, "unit": "%"}]}
